Experimental data published in article doi:10.1101/2023.12.08.570772.
Blank lines part the entries; values can stand above or below the substance they belong to.

Experiments:
[1] = target: His-tagged full length (FL) wildtype (WT) RAD18 (human) (UniProt Q9NS91); experiment: AUC
[2] = target: His-tagged full length (FL) wildtype (WT) RAD18 (human) (UniProt Q9NS91); experiment: mass photometry
[3] = target: RAD18/RAD6 complex (full-length, purified) (human) (UniProt Q9NS91); experiment: mass photometry
RAD18/RAD6 complex (full-length, purified) (human), sequence (Q9NS91 whole entry, chain 1 of 2): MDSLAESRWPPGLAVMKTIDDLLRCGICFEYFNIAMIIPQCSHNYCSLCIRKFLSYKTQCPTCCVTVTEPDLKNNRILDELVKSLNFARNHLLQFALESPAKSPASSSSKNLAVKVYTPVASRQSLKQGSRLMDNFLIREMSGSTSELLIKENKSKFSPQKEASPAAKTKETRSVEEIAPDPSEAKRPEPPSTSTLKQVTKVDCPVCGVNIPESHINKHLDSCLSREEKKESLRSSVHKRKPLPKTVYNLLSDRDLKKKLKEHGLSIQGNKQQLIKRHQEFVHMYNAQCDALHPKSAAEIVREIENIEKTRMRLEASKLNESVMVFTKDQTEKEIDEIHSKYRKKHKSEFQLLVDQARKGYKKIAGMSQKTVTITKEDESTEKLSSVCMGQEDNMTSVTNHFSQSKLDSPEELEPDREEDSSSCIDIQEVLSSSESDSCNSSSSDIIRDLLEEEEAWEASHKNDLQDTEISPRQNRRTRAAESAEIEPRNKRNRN
RAD18/RAD6 complex (full-length, purified) (human), sequence (P63146 whole entry, chain 2 of 2, further chain): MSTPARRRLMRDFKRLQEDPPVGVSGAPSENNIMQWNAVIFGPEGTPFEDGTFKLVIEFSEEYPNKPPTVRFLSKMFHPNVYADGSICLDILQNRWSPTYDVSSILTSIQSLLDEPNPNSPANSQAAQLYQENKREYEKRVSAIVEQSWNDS

[4] = target: RAD6 WT (N-terminal histidine tag, purified alone) (human) (UniProt P63146); experiment: ITC
RAD6 WT (N-terminal histidine tag, purified alone) (human), sequence (P63146 whole entry): as the sequence (P63146 whole entry, chain 2 of 2, further chain) above

RAD6 of the purified RAD18/RAD6 complex, sequence (P63146 whole entry, one chain of several): as the sequence (P63146 whole entry, chain 2 of 2, further chain) above
His-tagged full length (FL) wildtype (WT) RAD18, sequence (Q9NS91 whole entry): as the sequence (Q9NS91 whole entry, chain 1 of 2) above
His-tagged full length (FL) wildtype (WT) RAD18 (human), sequence (Q9NS91 whole entry): as the sequence (Q9NS91 whole entry, chain 1 of 2) above
Full length MAGEA4 WT (N-terminal histidine tag), sequence (P43358 whole entry): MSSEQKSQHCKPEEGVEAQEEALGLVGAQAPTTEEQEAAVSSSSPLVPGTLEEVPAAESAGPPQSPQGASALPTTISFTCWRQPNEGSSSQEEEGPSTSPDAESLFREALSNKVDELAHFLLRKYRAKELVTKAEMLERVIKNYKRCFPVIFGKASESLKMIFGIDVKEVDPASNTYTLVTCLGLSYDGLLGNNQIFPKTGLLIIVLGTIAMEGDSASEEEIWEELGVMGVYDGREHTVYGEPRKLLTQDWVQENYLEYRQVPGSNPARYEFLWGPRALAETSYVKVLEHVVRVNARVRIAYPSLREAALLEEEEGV

- stoichiometry N [1]: 2
- stoichiometry N [2]: 2
Substance: His-tagged full length (FL) wildtype (WT) RAD18 (from UniProt Q9NS91 1-495) (enzyme)

Substance: Full length MAGEA4 WT (N-terminal histidine tag) (from UniProt P43358 1-317) (natural protein)
- stoichiometry N [3]: 1

Substance: RAD18 R6BD peptide (27 amino acid peptide containing amino acids 340-366 of RAD18) (from UniProt Q9NS91 340-366)
- Kd [4]: 25.3 µM

Substance: RAD6 of the purified RAD18/RAD6 complex (from UniProt P63146 1-152) (enzyme)
- stoichiometry N (RAD6 per RAD18) [1]: 0.5
- stoichiometry N (RAD6 per RAD18) [2]: 0.5
